Target: Pex5L, a longer isoform of Pex5 (Chinese hamster, ClPex5L) (Chinese hamster, UniProt Q920N5 1-640)
Assay: pull-down; GST-Pex14 variants (2 μg) on glutathione-Sepharose beads incubated with EGFP-PTS1 (4 μg) or HA-catalase (4 μg) in the presence of Pex5L (2 μg) 2 h at 4°C; 50 mM Tris-HCl pH 7.5, 0.15 M NaCl, 1% Triton X-100, 10% glycerol; immunoblot
Conditions: both partners purified

B1: HA-catalase (human, HA-HsCatalase) (enzyme)
chain: MADSRDPASDQMQHWKEQRAAQKADVLTTGAGNPVGDKLNVITVGPRGPLLVQDVVFTDEMAHFDRERIPERVVHAKGAGAFGYFEVTHDITKYSKAKVFEHIGKKTPIAVRFSTVAGESGSADTVRDPRGFAVKFYTEDGNWDLVGNNTPIFFIRDPILFPSFIHSQKRNPQTHLKDPDMVWDFWSLRPESLHQVSFLFSDRGIPDGHRHMNGYGSHTFKLVNANGEAVYCKFHYKTDQGIKNLSVEDAARLSQEDPDYGIRDLFNAIATGKYPSWTFYIQVMTFNQAETFPFNPFDLTKVWPHKDYPLIPVGKLVLNRNPVNYFAEVEQIAFDPSNMPPGIEASPDKMLQGRLFAYPDTHRHRLGPNYLHIPVNCPYRARVANYQRDGPMCMQDNQGGAPNYYPNSFGAPEQQPSALEHSIQYSGEVRRFNTANDDNVTQVRAFYVNVLNEEQRKRLCENIAGHLKDAQIFIQKKAVKNFTEVHPDYGSHIQALLDKYNAEKPKNAIHTFVQSGSHLAAREKANL
notes: catalase, human (HsCatalase), amplified from pUcD3/HA-HsCatalase (Otera and Fujiki, 2012) and cloned into pGEX6P-1; source: E. coli DH5α, purified as GST fusion with glutathione-Sepharose beads, isolated by cleaving with PreScission protease
B1: binds.

Source: publication doi:10.1101/2020.05.01.072132, “Peroxisome counteracts oxidative stresses by suppressing catalase import via Pex14 phosphorylation” (bioRxiv, 2020)
